The results in this text go back to patent publication US20100047253A1.

For test [1], the target named is human IL-13 (source not stated for the assay) (human) (UniProt P35225). As to the kind of experiment: cell-based or functional assay.
For test [2], the target named is IL-13 variant IL-13Q110R (human) (UniProt P35225). Description: SPR (Biacore 2000), mAb captured on goat anti-human surface, IL-13 variant (Peprotech) 23.6-0.185 nM, 1:1 model. For orientation: SPR reads the build-up and loss of mass on a sensor chip optically.
Test [3] shares this target. Description: cell-based or functional assay.

human IL-13 (source not stated for the assay) (human), sequence (P35225 35-146 limits assumed): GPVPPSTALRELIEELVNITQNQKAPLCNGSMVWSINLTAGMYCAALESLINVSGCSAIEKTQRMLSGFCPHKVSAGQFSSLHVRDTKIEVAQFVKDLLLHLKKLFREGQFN
IL-13 variant IL-13Q110R (human), sequence (P35225 33-146, stated change not applied): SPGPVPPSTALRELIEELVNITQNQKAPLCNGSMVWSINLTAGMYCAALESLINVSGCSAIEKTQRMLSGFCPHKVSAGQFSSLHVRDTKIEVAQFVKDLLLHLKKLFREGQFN

B1: human IL-13 receptor α2/Fc (Fc fusion, UniProt Q14627 27-343, looked up, not shown: a dimerising Fc or GST)
chain: DTEIKVNPPQDFEIVDPGYLGYLYLQWQPPLSLDHFKECTVEYELKYRNIGSETWKTIITKNLHYKDGFDLNKGIEAKIHTLLPWQCTNGSEVQSSWAETTYWISPQGIPETKVQDMDCVYYNWQYLLCSWKPGIGVLLDTNYNLFYWYEGLDHALQCVDYIKADGQNIGCRFPYLEASDYKDFYICVNGSSENKPIRSSYFTFQLQNIVKPLPPVYLTFTRESSCEIKLKWSIPLGPIPARCFDYEIEIREDDTTLVTATVENETYTLKTTNETRQLCFVVRSKVNIYCSDDGIWSEWSDKQCWEGEDLSKKTLLR
Consider B1, for which, in test [1], the EC50, HDLM-2 proliferation assay (3H-thymidine) turned out to be 0.6 nM; the EC50, L-1236 proliferation assay (3H-thymidine) was 59 pM; the IC50, IL-13-induced CD23 expression on whole blood B cells (FACS) is 4 nM; the IC50, IL-13 induced eotaxin release, Average turned out to be 131 pM. In test [1], this molecule yielded an IC50, IL-13 induced eotaxin release, n = 1 of 128 pM; an IC50, IL-13 induced eotaxin release, n = 2 of 147 pM; an IC50, IL-13 induced eotaxin release, n = 3 of 119 pM.

B2: mAb 623 (antibody, V domains shown)
VH: EVQLVESGGGLVKPGGSLRLSCAASGFTFSNAWMSWVRQAPGKGLEWVGRIRSEIDGGTTNYAAPVKGRFTISRDDSKNTLYLQMNSLKTEDTAVYYCATDQVGAYYGDYYGMDVWGQGTTVTVSS
VL: SYELTQPPSVSVSPGQTARITCSGDALPEKYAYWYQQKSGQAPVLVIYEDSKRPSGIPERFSGSSSGTMATLTISGAQVEDEADYYCHSTDSSGNHGVFGGGTKLTVLG
The term Kd denotes the free concentration of one partner at which half of the binding sites on the other are occupied at equilibrium, for simple one-to-one binding. As a reminder, the koff is a measure of how fast the partners let go of each other. As a reminder, the kon is the rate constant with which the complex forms. Regarding B2, in test [2], the Kd was 0.0388 nM, the dissociation rate constant (koff) is 0.000218 s⁻¹ and the kon worked out at 5.62e+06 M⁻¹ s⁻¹. Besides, in test [3], the IC50, eotaxin production by HDFa cells, 300 pM IL-13Q110R turned out to be 106 pM and the IC50, eotaxin production by HDFa cells, 600 pM IL-13Q130R was 277 pM.

B3: mAb 731 (antibody, V domains shown)
VH: EVQLLESGGGLVQPGGSLRLSCAASGFTFSSYAMSWVRQAPGKGLEWVSAFSGSGGSTYYADSVKGRFTISRDNSKNTLYLQMNSLRAEDTAVYYCVQDGLGPYFYNYGMDVWGQGTTVTVSS
VL: SYELTQPPSVSVSPGQTASITCSGDKLGDKYACWFQQKPGQSPVLVIYHDSKRPSGIPERFSGSNSGDTATLTISGTQAMDEADYYCQAWDSSTYVFGTGTKVTVLG
In the case of B3, in test [2], the Kd came to 0.0098 nM, the koff came out at 5.02e-05 s⁻¹ and the kon was 5.11e+06 M⁻¹ s⁻¹. Moreover, in test [3], the IC50, eotaxin production by HDFa cells, 300 pM IL-13Q110R is 54 pM and the IC50, eotaxin production by HDFa cells, 600 pM IL-13Q130R came to 140 pM.

B4: murine IL-13 receptor α2/FC (Fc fusion, mouse, UniProt O88786 22-334, looked up, not shown: a dimerising Fc or GST)
chain: LEIKVNPPQDFEILDPGLLGYLYLQWKPPVVIEKFKGCTLEYELKYRNVDSDSWKTIITRNLIYKDGFDLNKGIEGKIRTHLSEHCTNGSEVQSPWIEASYGISDEGSLETKIQDMKCIYYNWQYLVCSWKPGKTVYSDTNYTMFFWYEGLDHALQCADYLQHDEKNVGCKLSNLDSSDYKDFFICVNGSSKLEPIRSSYTVFQLQNIVKPLPPEFLHISVENSIDIRMKWSTPGGPIPPRCYTYEIVIREDDISWESATDKNDMKLKRRANESEDLCFFVRCKVNIYCADDGIWSEWSEEECWEGYTGPDSK
In test [1], B4 returned an IC50, IL-13 induced eotaxin release, Average of 32 pM; an IC50, IL-13 induced eotaxin release, n = 1 of 29 pM; an IC50, IL-13 induced eotaxin release, n = 2 of 39 pM; an IC50, IL-13 induced eotaxin release, n = 3 of 29 pM.
